Reference: US20220389095A1 (AGENUS, published 2022)

Target: T1, human TIGIT (human, UniProt Q495A1 22-244)
T1 construct: whole, on cells; The assays used cell-surface TIGIT; also called T-cell immunoreceptor with Ig and ITIM domains; VSIG9
T1 sequence (looked up): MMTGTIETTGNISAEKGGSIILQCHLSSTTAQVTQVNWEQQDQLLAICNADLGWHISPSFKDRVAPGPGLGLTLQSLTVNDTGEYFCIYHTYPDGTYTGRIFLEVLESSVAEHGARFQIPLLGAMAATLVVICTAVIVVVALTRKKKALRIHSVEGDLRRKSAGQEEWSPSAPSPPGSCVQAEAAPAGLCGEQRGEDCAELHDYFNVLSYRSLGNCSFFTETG
Test: flow cytometry on anti-CD3-activated human PBMC, gated on CD4+ and CD8+ T cells
Procedure: After four days, the sample plates were centrifuged for two minutes at 2000 rpm and then supernatants were discarded. Samples were blocked with FcγR Block prepared in FACs buffer at 5 μL per 100 μL for 10 minutes. Sample plates were then centrifuged for two minutes at 2000 rpm and the supernatant was discarded. The cells were then resuspended in 100 μL of BA159 or a relevant isotype control antibody. To prepare antibodies, each antibody was diluted to 40 μg/mL in buffer for a final volume of 200 μL. Antibodies were then serially diluted 1 to 4 for a total of 12 dilutions ranging from 40 μg/mL to 0.00000954 μg/mL.
Cells were then resuspended in a cocktail of fluorescently labeled antibodies prepared in FACs buffer. 100 μL of antibody was add per well of a round-bottom 96-well plate. The sample plate was incubated for 20 minutes on ice. Cells were then washed by addition of cold sample buffer, centrifuged for two minutes at 2000 rpm, and supernatants were discarded. This wash was repeated once. […]
Antibody binding was measured by flow cytometry using a BD LSR Fortessa Flow Cytometer. […] 100,000 events were recorded for each sample. Samples were analyzed by sequentially gating on the following populations: FSC-A vs SSC-A, FSC-H vs FSC-A, SSC-A vs LIVE/DEAD, and CD4 vs CD8 Mean fluorescence intensity (MFI) was calculated.

B1: BA159 (antibody, human IgG1, lambda)
heavy: EVQLVQSGAEVKKPGSSVKVSCKASGYTFASYGISWVRQAPGQGLEWMGGITPFFNRVDVAEKFQGRVTITADKSTSTAYIELSSLRSEDTAVYYCARDLRRGGVGDAFDIWGRGTLVTVSSASTKGPSVFPLAPSSKSTSGGTAALGCLVKDYFPEPVTVSWNSGALTSGVHTFPAVLQSSGLYSLSSVVTVPSSSLGTQTYICNVNHKPSNTKVDKRVEPKSCDKTHTCPPCPAPELLGGPDVFLFPPKPKDTLMISRTPEVTCVVVDVSHEDPEVKFNWYVDGVEVHNAKTKPREEQYNSTYRVVSVLTVLHQDWLNGKEYKCKVSNKALPLPEEKTISKAKGQPREPQVYTLPPSREEMTKNQVSLTCLVKGFYPSDIAVEWESNGQPENNYKTTPPVLDSDGSFFLYSKLTVDKSRWQQGNVFSCSVMHEALHNHYTQKSLSLSPGK
light: QSALTQPRSVSGSPGQSVTISCTGTSSDVGSHNYVSWYQQHPGKAPKLMIYEVSYRPSGVSNRFSGSKSGNTASLTISGLQAEDEADYYCSSYTPSSATVFGAGTKLTVLGQPKAAPSVTLFPPSSEELQANKATLVCLISDFYPGAVTVAWKADSSPVKAGVETTTPSKQSNNKYAASSYLSLTPEQWKSHRSYSCQVTHEGSTVEKTVAPTECS
notes: also called anti-TIGIT antibody BA159
B1: binds.
